Source: publication PMC2888265
Like-named read-outs stand apart in the source and are kept apart here.

How the values were obtained:
Experiment in all cases: crystal structure
[1] = target: Teg12 (uncultured bacterium (DNA extracted directly from desert soil))
[2] = target: Teg12 (uncultured bacterium (DNA extracted directly from desert soil)); remark: listed apart in the source
[3] = target: Teg12 (uncultured bacterium (DNA extracted directly from desert soil)); remark: listed apart in the source

Measured: stoichiometry N

Teg12 (enzyme)
2: all assays above
